In paper PMC2119678 (The Journal of Cell Biology, 1993):

Molecular target: actin from rabbit skeletal muscle (F actin) (rabbit, UniProt P68135 1-377)
Test: co-sedimentation

- stoichiometry N: 6 actin monomers per transgelin
B1: transgelin (natural protein)
chain: MANKGPSYGMSREVQSKIEKKYDEELEERLVEWIVVQCGPDVGRPDRGRLGFQVWLKNGVILSKLVNSLYPDGSKPVKVPENPPSMVFKQMEQVAQFLKAAEDYGVTKTDMFQTVDLFEGKDLAAVQRTLMALGSLAVTKNDGHYRGDPNWFMKKAQEHKREFTESQLQEGKHVIGLQMGSNRGASQLAGHSILPRLPHTQPCSSFSPGQASRLRH
